Results on 2 molecules are retold here after article PMC4258549.

For test [1], the target named is biotinylated C4b (human). The experiment in a line: AlphaScreen or HTRF.
Test [2] has as its target biotinylated C4b (human). The experiment in a line: AlphaScreen or HTRF. The source holds these as a separate data set.
For test [3], the target named is biotinylated C4b (human). The experiment in a line: SPR.
The target of test [4] is complement component C4b (human). Briefly: AUC.

B1: complement component C2, recombinant, full-length (natural protein)
chain: APSCPQNVNISGGTFTLSHGWAPGSLLTYSCPQGLYPSPASRLCKSSGQWQTPGATRSLSKAVCKPVRCPAPVSFENGIYTPRLGSYPVGGNVSFECEDGFILRGSPVRQCRPNGMWDGETAVCDNGAGHCPNPGISLGAVRTGFRFGHGDKVRYRCSSNLVLTGSSERECQGNGVWSGTEPICRQPYSYDFPEDVAPALGTSFSHMLGATNPTQKTKESLGRKIQIQRSGHLNLYLLLDCSQSVSENDFLIFKESASLMVDRIFSFEINVSVAIITFASEPKVLMSVLNDNSRDMTEVISSLENANYKDHENGTGTNTYAALNSVYLMMNNQMRLLGMETMAWQEIRHAIILLTDGKSNMGGSPKTAVDHIREILNINQKRNDYLDIYAIGVGKLDVDWRELNELGSKKDGERHAFILQDTKALHQVFEHMLDVSKLTDTICGVGNMSANASDQERTPWHVTIKPKSQETCRGALISDQWVLTAAHCFRDGNDHSLWRVNVGDPKSQWGKEFLIEKAVISPGFDVFAKKNQGILEFYGDDIALLKLAQKVKMSTHARPICLPCTMEANLALRRPQGSTCRDHENELLNKQSVPAHFVALNGSKLNINLKMGVEWTSCAEVVSQEKTMFPNLTDVREVVTDQFLCSGTQEDESPCKGESGGAVFLERRFRFFQVGLVSWGLYNPCLGSADKNSRKRAPRSKVPPPRDFHINLFRMQPWLRQHLGDVLNFLPL
For the molecule B1, the IC50 in test [1] amounted to 460 nM; in test [2], 180 nM.

B2: extracellular adherence protein (Eap), recombinant, full-length, untagged (natural protein)
chain: AAKPLDKSSSTLHHGHSNIQIPYTITVNGTSQNILSSLTFNKNQNISYKDIENKVKSVLYFNRGISDIDLRLSKQAEYTVHFKNGTKRVIDLKSGIYTADLINTSDIKAISVNVDTKKQPKDKAKANVQVPYTITVNGTSQNILSNLTFNKNQNISYKDLEGKVKSVLESNRGITDVDLRLSKQAKYTVNFKNGTKKVIDLKSGIYTANLINSSDIKSININVDTKKHIENKAKRNYQVPYSINLNGTSTNILSNLSFSNKPWTNYKNLTSQIKSVLKHDRGISEQDLKYAKKAYYTVYFKNGGKRILQLNSKNYTANLVHAKDVKRIEITVKTGTKAKADRYVPYTIAVNGTSTPILSKLKISNKQLISYKYLNDKVKSVLKSERGISDLDLKFAKQAKYTVYFKNGKKQVVNLKSDIFTPNLFSAKDIKKIDIDVKQYTKSKKK
On to B2, for which the IC50 in test [3] worked out at 50 nM. The molecule also yielded a Kd in test [1] of 185 nM. The same molecule had a stoichiometry N in test [4] of 1.
